T1: human full-length B7H3 on MCF-7 cells (human, UniProt Q5ZPR3 29-534)
T1 chain: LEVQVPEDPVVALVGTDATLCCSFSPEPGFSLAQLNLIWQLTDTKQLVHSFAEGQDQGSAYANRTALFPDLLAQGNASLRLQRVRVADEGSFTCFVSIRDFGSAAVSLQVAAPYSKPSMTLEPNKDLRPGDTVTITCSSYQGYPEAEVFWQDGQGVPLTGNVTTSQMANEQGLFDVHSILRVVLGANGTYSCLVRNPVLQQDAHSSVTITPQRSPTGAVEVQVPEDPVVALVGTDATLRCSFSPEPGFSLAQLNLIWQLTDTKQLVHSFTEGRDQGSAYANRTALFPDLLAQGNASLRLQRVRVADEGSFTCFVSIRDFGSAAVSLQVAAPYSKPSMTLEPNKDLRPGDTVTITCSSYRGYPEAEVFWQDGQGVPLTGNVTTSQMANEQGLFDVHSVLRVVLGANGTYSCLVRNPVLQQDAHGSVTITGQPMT

B1: W301088-1.145.16-xIgG1KV320 (antibody, V domains shown)
VH: DVQLQESGPGLVKPSQSLSLTCTVTDYSITGDYAWNWIRQFPGNKLEWMGYISYSGSTSYNPSLQSRISITRDTSKNQFFLQLNSVTSEDTATYFCARSLGRRWYFVVWGAGTTVTVSA
VL: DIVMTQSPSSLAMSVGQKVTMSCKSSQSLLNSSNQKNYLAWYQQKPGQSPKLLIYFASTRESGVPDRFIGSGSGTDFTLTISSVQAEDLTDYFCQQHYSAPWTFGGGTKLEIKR
notes: also called the chimeric antibody; chimeric antibody
B2: W301088-1.145.16-z3-p1-uIgG1KV320 (antibody, V domains shown)
VH: QVQLQESGPGLVKPSQTLSLTCTVTDYSITGDYAWNWIRQHPGKGLEWIGYISYSGSTSYNPSLQSRVTISRDTSKNQFSLKLSSVTAADTAVYFCARSLGRRWYFVVWGQGTTVTVSS
VL: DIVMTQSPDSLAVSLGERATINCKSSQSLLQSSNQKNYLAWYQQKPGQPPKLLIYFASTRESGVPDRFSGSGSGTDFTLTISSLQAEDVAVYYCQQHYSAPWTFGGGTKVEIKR
notes: human IgG1 LALA, kappa; also called the final lead antibody; final lead
B3: Enoblituzumab (MacroGenics) (antibody, V domains shown)
VH: EVQLVESGGGLVQPGGSLRLSCAASGFTFSSFGMHWVRQAPGKGLEWVAYISSDSSAIYYADTVKGRFTISRDNAKNSLYLQMNSLRDEDTAVYYCGRGRENIYYGSRLDYWGQGTTVTVSS
VL: DIQLTQSPSFLSASVGDRVTITCKASQNVDTNVAWYQQKPGKAPKALIYSASYRYSGVPSRFSGSGSGTDFTLTISSLQPEDFATYYCQQYNNYPFTFGQGTKLEIKR

Legend:
[1] = target: T1, human full-length B7H3 on MCF-7 cells; assay: FACS on MCF-7 cells
[2] = target: T1, human full-length B7H3 on MCF-7 cells; assay: cell-based or functional assay
[3] = target: T1, human full-length B7H3 on MCF-7 cells; assay: cell-based or functional assay

| Binder | Max MFI [1] [MFI] | Internalization on MCF-7, EC50 [2] [nM] | Internalization on MCF-7, Max MFI [2] [MFI] | internalization, EC50 [3] [nM] |
| --- | --- | --- | --- | --- |
| B1 | 19800 | 0.51 | 57200 |  |
| B2 | 19900 | 0.44 | 52300 | 0.51 |
| B3 | 4640 | 1.95 | 39800 |  |

From US20250313633A1 (WUXI BIOLOGICS IRELAND, published 2025)
